In US20210388087A1:
Substitutions are numbered along the chain they refer to. Numbers in names are those of the source.

B1: H183/L072 VH M34N (antibody, name in Kabat numbering, V domains shown)
VH: QVQLVESGGGLVQPGRSLRLSCAASGFTFSNAWNHWVRQAPGKGLEWVAQIKDKGNAYAAYYAPSVKGRFTISRDDSKNSIYLQMNSLKTEDTAVYYCHYVHYASASTVLPAFGVDAWGQGTTVTVSS
VL: DIVMTQSPLSLPVTPGEPASISCQASQELVHMNRNTYLHWYQQKPGQAPRLLIYKVSNRFPGVPDRFSGSGSGTDFTLKISRVEAEDVGVYYCAQGTSVPFTFGQGTKLEIK
B2: H183/L072 VH A32D (antibody, name in Kabat numbering, V domains shown)
VH: B1 VH with A32D, N34M
VL: B1 VL
B3: H183/L072 VH I51Q (antibody, name in Kabat numbering, V domains shown)
VH: B1 VH with N34M, I51Q
VL: B1 VL
B4: H183/L072 VH D52aE (antibody, name in Kabat numbering, V domains shown)
VH: B1 VH with N34M, D53E
VL: B1 VL
B5: H183/L072 VH F29S (antibody, name in Kabat numbering, V domains shown)
VH: B1 VH with F29S, N34M
VL: B1 VL
B6: H183/L072 VH T28D (antibody, name in Kabat numbering, V domains shown)
VH: B1 VH with T28D, N34M
VL: B1 VL
B7: H183/L072 VH D52aT (antibody, name in Kabat numbering, V domains shown)
VH: B1 VH with N34M, D53T
VL: B1 VL
B8: H183/L072 VH F29Q (antibody, name in Kabat numbering, V domains shown)
VH: B1 VH with F29Q, N34M
VL: B1 VL
B9: H183/L072 VH I51E (antibody, name in Kabat numbering, V domains shown)
VH: B1 VH with N34M, I51E
VL: B1 VL
B10: H183/L072 VH N31E (antibody, name in Kabat numbering, V domains shown)
VH: B1 VH with N31E, N34M
VL: B1 VL
B11: H183/L072 VH N53T (antibody, name in Kabat numbering, V domains shown)
VH: B1 VH with N34M, N56T
VL: B1 VL
B12: H183/L072 VH M34D (antibody, name in Kabat numbering, V domains shown)
VH: B1 VH with N34D
VL: B1 VL
B13: H183/L072 VH W33S (antibody, name in Kabat numbering, V domains shown)
VH: B1 VH with W33S, N34M
VL: B1 VL
B14: H183/L072 VH W33Q (antibody, name in Kabat numbering, V domains shown)
VH: B1 VH with W33Q, N34M
VL: B1 VL
B15: H183/L072 VH H35D (antibody, name in Kabat numbering, V domains shown)
VH: B1 VH with N34M, H35D
VL: B1 VL
B16: H183/L072 VH N53D (antibody, name in Kabat numbering, V domains shown)
VH: B1 VH with N34M, N56D
VL: B1 VL
B17: H183/L072 VH F29D (antibody, name in Kabat numbering, V domains shown)
VH: B1 VH with F29D, N34M
VL: B1 VL
B18: H183/L072 VH W33T (antibody, name in Kabat numbering, V domains shown)
VH: B1 VH with W33T, N34M
VL: B1 VL
B19: H183/L072 VH F29E (antibody, name in Kabat numbering, V domains shown)
VH: B1 VH with F29E, N34M
VL: B1 VL
B20: H183/L072 VH K52T (antibody, name in Kabat numbering, V domains shown)
VH: B1 VH with N34M, K52T
VL: B1 VL
B21: H183/L072 VH Y55S (antibody, name in Kabat numbering, V domains shown)
VH: B1 VH with N34M, Y58S
VL: B1 VL
B22: H183/L072 VH F29H (antibody, name in Kabat numbering, V domains shown)
VH: B1 VH with F29H, N34M
VL: B1 VL
B23: H183/L072 VH Y55T (antibody, name in Kabat numbering, V domains shown)
VH: B1 VH with N34M, Y58T
VL: B1 VL
B24: H183/L072 VH H35E (antibody, name in Kabat numbering, V domains shown)
VH: B1 VH with N34M, H35E
VL: B1 VL
B25: H183/L072 VH H35S (antibody, name in Kabat numbering, V domains shown)
VH: B1 VH with N34M, H35S
VL: B1 VL
B26: H183/L072 VH N53Q (antibody, name in Kabat numbering, V domains shown)
VH: B1 VH with N34M, N56Q
VL: B1 VL
B27: H183/L072 VH K52E (antibody, name in Kabat numbering, V domains shown)
VH: B1 VH with N34M, K52E
VL: B1 VL
B28: H183/L072 VH D52aN (antibody, name in Kabat numbering, V domains shown)
VH: B1 VH with N34M, D53N
VL: B1 VL
B29: H183/L072 VH T28S (antibody, name in Kabat numbering, V domains shown)
VH: B1 VH with T28S, N34M
VL: B1 VL
B30: H183/L072 VH I51D (antibody, name in Kabat numbering, V domains shown)
VH: B1 VH with N34M, I51D
VL: B1 VL
B31: H183/L072 VH D52aS (antibody, name in Kabat numbering, V domains shown)
VH: B1 VH with N34M, D53S
VL: B1 VL
B32: H183/L072 VH M34Q (antibody, name in Kabat numbering, V domains shown)
VH: B1 VH with N34Q
VL: B1 VL
B33: H183/L072 VH N53S (antibody, name in Kabat numbering, V domains shown)
VH: B1 VH with N34M, N56S
VL: B1 VL
B34: H183/L072 VH N53E (antibody, name in Kabat numbering, V domains shown)
VH: B1 VH with N34M, N56E
VL: B1 VL
B35: H183/L072 VH M34T (antibody, name in Kabat numbering, V domains shown)
VH: B1 VH with N34T
VL: B1 VL
B36: H183/L072 VH K52bD (antibody, name in Kabat numbering, V domains shown)
VH: B1 VH with N34M, K54D
VL: B1 VL
B37: H183/L072 VH W33D (antibody, name in Kabat numbering, V domains shown)
VH: B1 VH with W33D, N34M
VL: B1 VL
B38: H183/L072 VH W33H (antibody, name in Kabat numbering, V domains shown)
VH: B1 VH with W33H, N34M
VL: B1 VL
B39: H183/L072 VH D52aQ (antibody, name in Kabat numbering, V domains shown)
VH: B1 VH with N34M, D53Q
VL: B1 VL
B40: H183/L072 VH M34E (antibody, name in Kabat numbering, V domains shown)
VH: B1 VH with N34E
VL: B1 VL
B41: H183/L072 VH W33E (antibody, name in Kabat numbering, V domains shown)
VH: B1 VH with W33E, N34M
VL: B1 VL
B42: H183/L072 VH N31D (antibody, name in Kabat numbering, V domains shown)
VH: B1 VH with N31D, N34M
VL: B1 VL
B43: H183/L072 VH I51H (antibody, name in Kabat numbering, V domains shown)
VH: B1 VH with N34M, I51H
VL: B1 VL
B44: H183/L072 VH H35Q (antibody, name in Kabat numbering, V domains shown)
VH: B1 VH with N34M, H35Q
VL: B1 VL
B45: H183/L072 VH K52D (antibody, name in Kabat numbering, V domains shown)
VH: B1 VH with N34M, K52D
VL: B1 VL
B46: H183/L072 VH K52S (antibody, name in Kabat numbering, V domains shown)
VH: B1 VH with N34M, K52S
VL: B1 VL
B47: H183/L072 VH M34S (antibody, name in Kabat numbering, V domains shown)
VH: B1 VH with N34S
VL: B1 VL

biological target: Human CD137 ECD (human); assay: single mutant vs template dBBDu183H
Sequence (chain, as listed by the source limits assumed): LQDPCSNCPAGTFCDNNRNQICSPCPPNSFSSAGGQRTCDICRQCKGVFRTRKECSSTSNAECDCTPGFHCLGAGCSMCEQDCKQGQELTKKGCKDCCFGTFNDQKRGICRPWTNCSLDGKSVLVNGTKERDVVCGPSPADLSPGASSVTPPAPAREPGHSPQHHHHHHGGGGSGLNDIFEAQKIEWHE

| Binder | fold change of affinity [fold] |
| --- | --- |
| B1 | 0 |
| B2 | 0 |
| B3 | 0 |
| B4 | 0 |
| B5 | 0 |
| B6 | 0 |
| B7 | 0 |
| B8 | 0 |
| B9 | 0 |
| B10 | 0 |
| B11 | 0 |
| B12 | 0 |
| B13 | 0 |
| B14 | 0 |
| B15 | 0 |
| B16 | 0 |
| B17 | 0 |
| B18 | 0 |
| B19 | 0 |
| B20 | 0 |
| B21 | 0 |
| B22 | 0 |
| B23 | 0 |
| B24 | 0 |

| Binder | fold change of affinity [fold] |
| --- | --- |
| B25 | 0 |
| B26 | 0 |
| B27 | 0 |
| B28 | 0 |
| B29 | 0 |
| B30 | 0 |
| B31 | 0 |
| B32 | 0 |
| B33 | 0 |
| B34 | 0 |
| B35 | 0 |
| B36 | 0 |
| B37 | 0 |
| B38 | 0 |
| B39 | 0 |
| B40 | 0 |
| B41 | 0 |
| B42 | 0 |
| B43 | 0 |
| B44 | 0 |
| B45 | 0 |
| B46 | 0 |
| B47 | 0 |
